From US12698507B2, “Methods and compositions for conferring and/or enhancing herbicide tolerance using protoporphyrinogen IX oxidase of various cyanobacteria or variant thereof” (FarmHannong Co., Ltd., priority 2019, dated 2026)
Changes are numbered by the printed parent chain. Names may count otherwise.

B1: CyPPO19 V165S + A167C + F360L: variant of CyPPO19 PPO protein (SEQ ID NO: 1) (protein)
chain: MSEVDVAIVGGGLSGLSLAWRLQQSAPQYSVVLLEASDRLGGNITTQTAEGFVWELGPNSFAPTPALLQLIAEVGLQSELIRGDRHLPRYIYWRGQLYPLQPTRPLALATSNLLSPWGKVRAALGALGFVPPYLGSGDESVNSFFRRHLGQEVAERLVAPFVSGSYCGDPQQLSAAAAFRRIAQLEKLGGGLIAGALHLRRQQAPKPKPPTSVQMRPGELGSFKEGLAALPRAIAQQLKAPIHLQTPVQEITPDPKGGYLLRSGEQTWRARSVVLATPAYQTAELVAPFQPAIARVLATIPYPTVACVVLAYPAGLGRSVRPGFGVLIPRSQGIRTLGTIWSSCLFPQRTPAGWQVFTSLIGGATDPDLASLSEEAIVQQVQQDLNRLLDLPAAKARLLGMKVWRRAIPQYMVGYPEQWQQVTHALSQTPGLFLCSNYAEGVALGDRVEHGNRTAAAVAAYLSGGQP
modifications: Synthetic_PPO of Thermosynechococcus elongatus PKUAC-SCTE542 (comprising GenBank No. CP032152.1)
B2: CyPPO19 V165C + A167L + F360T: variant of CyPPO19 PPO protein (SEQ ID NO: 1) (protein)
chain: B1 chain with S165C, C167L, L360T
modifications: Synthetic_PPO of Thermosynechococcus elongatus PKUAC-SCTE542 (comprising GenBank No. CP032152.1)
B3: CyPPO19 V165C + L327T + F360V: variant of CyPPO19 PPO protein (SEQ ID NO: 1) (protein)
chain: B1 chain with S165C, C167A, L327T, L360V
modifications: Synthetic_PPO of Thermosynechococcus elongatus PKUAC-SCTE542 (comprising GenBank No. CP032152.1)
B4: CyPPO19 V165S + V305L + F360L: variant of CyPPO19 PPO protein (SEQ ID NO: 1) (protein)
chain: B1 chain with C167A, V305L
modifications: Synthetic_PPO of Thermosynechococcus elongatus PKUAC-SCTE542 (comprising GenBank No. CP032152.1)
B5: CyPPO19 V165C + V305M + F360I: variant of CyPPO19 PPO protein (SEQ ID NO: 1) (protein)
chain: B1 chain with S165C, C167A, V305M, L360I
modifications: Synthetic_PPO of Thermosynechococcus elongatus PKUAC-SCTE542 (comprising GenBank No. CP032152.1)
B6: CyPPO19 V165C + L327T + F360I: variant of CyPPO19 PPO protein (SEQ ID NO: 1) (protein)
chain: B1 chain with S165C, C167A, L327T, L360I
modifications: Synthetic_PPO of Thermosynechococcus elongatus PKUAC-SCTE542 (comprising GenBank No. CP032152.1)
B7: CyPPO19 V165S + L327T + F360T: variant of CyPPO19 PPO protein (SEQ ID NO: 1) (protein)
chain: B1 chain with C167A, L327T, L360T
modifications: Synthetic_PPO of Thermosynechococcus elongatus PKUAC-SCTE542 (comprising GenBank No. CP032152.1)
B8: CyPPO19 V165C + V305M + F360V: variant of CyPPO19 PPO protein (SEQ ID NO: 1) (protein)
chain: B1 chain with S165C, C167A, V305M, L360V
modifications: Synthetic_PPO of Thermosynechococcus elongatus PKUAC-SCTE542 (comprising GenBank No. CP032152.1)

Test system: PPO-deficient BT3 E. coli (ΔPPO)
Assay: PPO-inhibiting herbicide tolerance test of PPO variants in E. coli (growth on herbicide-containing LB agar)
Type: cell-based
Conditions: CyPPO19 variants in BT3 (ΔPPO) E. coli; LB agar with 0 to 2,000 μM herbicide, 37° C., dark, 16-20 hours
From the text: To enhance the PPO-inhibiting herbicide resistance of CyPPO19 and CyPPO18, PPO variant genes of the above example 2 were constructed. They were transformed to BT3 (ΔPPO) strain which is deficient of PPO activity and cultured in LB media with PPO-inhibiting herbicide, thereby examining whether growth of transformed BT3 was not inhibited.
BT3 competent cells were transformed with the pET303-CyPPO19 (wild type), pET303-CyPPO18 (wild type) plasmids, and those with a mutation(s) constructed (refer to example 2) via heat shock method, and were cultured in LB agar media containing ampicillin.
Single colony transformed with each CyPPO gene was cultured in 3 mL of LB broth (LPSS) containing ampicillin for more than 12 hours, and then was subcultured in LB broth until absorbance (OD600) reached 0.5 to 1. Then, it was diluted with LB broth to OD600=0.5. Again, the diluted solution was serially diluted 4 times by a factor of one tenth.
The LB agar media (LB 25 g/L, Bacto agar 12 g/L) containing ampicillin (100 μg/mL) and 0 to 2,000 μM of various herbicides were prepared. Herbicide solution stocks were all prepared in DMSO.
Then, 10 μL of each diluted solution of E. coli was dropped on the plate and cultured at 37° C. under dark for 16-20 hours. PPO-inhibiting herbicide resistance was evaluated with the extent of E. coli growth containing each gene was observed.
The extent of herbicide resistance was evaluated by the relative growth of variants to that of wild type, and listed in Tables 9 and 10 and FIGS. 3 to 32.
In Tables 9 and 10, the tolerance level of variants showing equivalent resistance to wild type was presented as ‘−’, and was done as ‘+’ per each 10-fold resistance until ‘+++++’ as maximal resistance.
FIGS. 3 to 30 and FIGS. 31 and 32 show the transformed E. coli growth result of CyPPO19 WT and its variants and CyPPO18 WT and its variants, respectively. The concentrations of herbicides were written above the photographs of tolerance test. A 10-fold dilution series of spots were shown from OD600=0.5 of the leftmost spot to OD600=0.00005 of the rightmost one.

Row | Molecule | tolerance level relative to wild type, Carfentrazone | tolerance level relative to wild type, Flumioxazin | tolerance level relative to wild type, Fomesafen | tolerance level relative to wild type, Oxyfluorfen | tolerance level relative to wild type, Saflufenacil | tolerance level relative to wild type, Sulfentrazone | tolerance level relative to wild type, Tiafenacil
1 | B1 | + (‘+’ per each 10-fold resistance) | ++++ (‘+’ per each 10-fold resistance) | + (‘+’ per each 10-fold resistance) | + (‘+’ per each 10-fold resistance) | +++ (‘+’ per each 10-fold resistance) | ++ (‘+’ per each 10-fold resistance) | ++++ (‘+’ per each 10-fold resistance)
2 | B2 | + (‘+’ per each 10-fold resistance) | +++ (‘+’ per each 10-fold resistance) | ++ (‘+’ per each 10-fold resistance) | + (‘+’ per each 10-fold resistance) | +++ (‘+’ per each 10-fold resistance) | +++ (‘+’ per each 10-fold resistance) | ++++ (‘+’ per each 10-fold resistance)
3 | B3 | + (‘+’ per each 10-fold resistance) | +++++ (until ‘+++++’ as maximal resistance) | + (‘+’ per each 10-fold resistance) | +++ (‘+’ per each 10-fold resistance) | ++++ (‘+’ per each 10-fold resistance) | +++++ (until ‘+++++’ as maximal resistance) | +++++ (until ‘+++++’ as maximal resistance)
4 | B4 | + (‘+’ per each 10-fold resistance) | +++++ (until ‘+++++’ as maximal resistance) | +++ (‘+’ per each 10-fold resistance) | +++ (‘+’ per each 10-fold resistance) | +++++ (until ‘+++++’ as maximal resistance) | +++++ (until ‘+++++’ as maximal resistance) | +++++ (until ‘+++++’ as maximal resistance)
5 | B5 | + (‘+’ per each 10-fold resistance) | +++++ (until ‘+++++’ as maximal resistance) | ++ (‘+’ per each 10-fold resistance) | ++ (‘+’ per each 10-fold resistance) | +++++ (until ‘+++++’ as maximal resistance) | +++ (‘+’ per each 10-fold resistance) | +++++ (until ‘+++++’ as maximal resistance)
6 | B6 | + (‘+’ per each 10-fold resistance) | +++++ (until ‘+++++’ as maximal resistance) | ++ (‘+’ per each 10-fold resistance) | +++ (‘+’ per each 10-fold resistance) | ++++ (‘+’ per each 10-fold resistance) | +++++ (until ‘+++++’ as maximal resistance) | +++++ (until ‘+++++’ as maximal resistance)
7 | B7 | + (‘+’ per each 10-fold resistance) | +++++ (until ‘+++++’ as maximal resistance) | +++ (‘+’ per each 10-fold resistance) | ++ (‘+’ per each 10-fold resistance) | ++++ (‘+’ per each 10-fold resistance) | +++ (‘+’ per each 10-fold resistance) | ++++ (‘+’ per each 10-fold resistance)
8 | B8 | + (‘+’ per each 10-fold resistance) | +++++ (until ‘+++++’ as maximal resistance) | ++ (‘+’ per each 10-fold resistance) | +++ (‘+’ per each 10-fold resistance) | +++++ (until ‘+++++’ as maximal resistance) | ++++ (‘+’ per each 10-fold resistance) | +++++ (until ‘+++++’ as maximal resistance)
